Measured values taken from patent publication US20160264669A1 (ARGEN X N V, published 2016).
Changes are numbered by the printed parent chain. Names may count otherwise.

T1: murine CD16-2 (Sino Biological Inc., 50036-M27H-B) (murine, UniProt A0A0B4J1G0 21-203, Probably biotinylated on the vendor's tag (catalogue suffix -B); not carried in the letters)
T1 construct: Purchased reagent; Biotinylation is only implied by 'a similar experimental procedure as described above'; also called mCD16-2
T1 sequence: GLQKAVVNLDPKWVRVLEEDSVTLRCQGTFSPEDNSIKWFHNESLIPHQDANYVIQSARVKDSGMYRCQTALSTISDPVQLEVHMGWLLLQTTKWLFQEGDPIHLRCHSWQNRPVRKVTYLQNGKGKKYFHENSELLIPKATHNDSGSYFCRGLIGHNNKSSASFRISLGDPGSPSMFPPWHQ

B1: Fc-Abdeg-POT (other)
chain: DKTHTCPPCPAPELLGGPSVFLFPPKPKDTLYITREPEVTCVVVDVSHEDPEVKFNWYVDGVEVHNAKTKPREEQYNSTYRVVSVLTVLHQDWLNGKEYKCKVSNKALPAPIEKTISKAKGQPREPQVYTLPPSRDELTKNQVSLTCLVKGFYPSDIAVEWESNGQPENNYKTTPPVLDSDGSFFLYSKLTVDKSRWQQGNVFSCSVMHEALKFHYTQKSLSLSPGK
modifications: afucosylated (defucosylated) N-linked glycan
notes: also called afucosylated form of Fc-Abdeg; afucosylated variant
B2: Fc-Abdeg (other)
chain: B1 chain
notes: Isolated variant human IgG Fc region with no variable region; Produced in CHO cells, fucosylated; also called wild-type Fc-Abdeg; fucosylated Fc-Abdeg
B3: Fc-Abdeg-S239D/I332E (other)
chain: B1 chain with S19D, I112E
notes: also called Fc-Abdeg-S239D/I332E variant

Tests used:
[1] = target: T2, biotinylated hCD16a (Sino Biological Inc., 10389-H27H1-B) (human, UniProt P08637 17-208, biotinylated (site not stated)); assay: ELISA; biotinylated hCD16a captured on neutravidin plate; reference is fucosylated Fc-Abdeg
T2 construct: Purchased reagent; also called human CD16a
Method: (§1) Specifically, a Maxisorp plate was coated with 100 ng/well of Neutravidin Biotin-binding Protein (ThermoScientific, 31000) and incubated overnight at 4° C. The following day, the plate was blocked with PBS+1% casein for 2 hours at room temperature. […] Binding to hCD16a was detected using an HRP-conjugated polyclonal goat anti-human Fc antibody (Jackson ImmunoResearch, 109-035-008) (incubation 1 hour at RT, dilution 1/50,000 in PBS+0.1% casein), followed by addition of 100 μl room temperature-equilibrated TMB (SDT-reagents #s TMB). Plates were incubated for 10 minutes prior to addition of 100 μl 0.5N H₂SO₄ and OD450 nm measurement. EC50 values were determined using GraphPad Prism software.

[2] = target: T2, biotinylated hCD16a (Sino Biological …); assay: ELISA; biotinylated hCD16a captured on neutravidin plate, anti-human Fc-HRP detection
Method: as §1

[3] = target: T1, murine CD16-2 (Sino Biological Inc., …); assay: ELISA on murine CD16-2, procedure similar to the hCD16a ELISA
Method: as §1
Using a similar experimental procedure as described above, the binding affinity for murine CD16-2 (Sino Biological Inc., 50036-M27H-B) was determined.

T2 sequence (P08637 17-208 limits assumed): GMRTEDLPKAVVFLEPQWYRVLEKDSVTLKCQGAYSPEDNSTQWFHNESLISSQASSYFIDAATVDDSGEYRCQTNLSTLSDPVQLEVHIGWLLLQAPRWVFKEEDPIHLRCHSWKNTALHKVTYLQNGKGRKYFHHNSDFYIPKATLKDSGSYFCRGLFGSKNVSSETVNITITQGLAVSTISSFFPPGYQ

fold increase in affinity vs Fc-Abdeg [1] [fold]	EC50 [2] [nM]	EC50 [3] [nM]	Binder
> 30	13	11	B1
–	–	> 100	B2
–	6	–	B3
